In the assay the target is T1, vimentin in lupus nephritis kidney tissue (Homo sapiens, UniProt P08670).
T1 construct: endogenous vimentin of human lupus nephritis biopsies; vimentin-rich zones marked with the anti-vimentin antibody V9; also called Vim^hi zones of inflamed lupus kidney; source: endogenous, paraffin embedded human lupus kidney biopsies
The assay is described as follows: immunostaining of cells or tissue; paraffin embedded lupus nephritis kidney biopsies, FLAG-tagged human IgG1 mAbs detected with rat anti-FLAG and Alexa Fluor 488 anti-rat IgG, co-stained with V9 and Hoechst; confocal microscopy, per field of view. Particulars: one partner purified.

T1 sequence (P08670 whole entry): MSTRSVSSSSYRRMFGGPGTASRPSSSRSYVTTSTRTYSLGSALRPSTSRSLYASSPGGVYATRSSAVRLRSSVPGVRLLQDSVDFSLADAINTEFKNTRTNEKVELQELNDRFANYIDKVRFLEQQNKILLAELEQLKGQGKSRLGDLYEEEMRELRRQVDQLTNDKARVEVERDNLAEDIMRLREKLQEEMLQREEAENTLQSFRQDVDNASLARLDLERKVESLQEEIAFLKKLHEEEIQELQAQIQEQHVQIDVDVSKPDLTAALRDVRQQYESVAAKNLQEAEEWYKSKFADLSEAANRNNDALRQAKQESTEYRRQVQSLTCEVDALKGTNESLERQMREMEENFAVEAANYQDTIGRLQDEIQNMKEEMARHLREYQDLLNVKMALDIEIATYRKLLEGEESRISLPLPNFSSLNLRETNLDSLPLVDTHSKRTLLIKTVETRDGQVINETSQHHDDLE

B1: FLAG-tagged PB4rev (antibody, V domains shown)
VH: QVQLQESGPGLVKPSETLSLTCTVSGGSISSYYWSWIRQPAGKGLEWIGRIYTSGSTNYNPSLKSRVTMSVDTSKNQFSLKLSSVTAADTAVYYCARESRGAVLTGDYYYYYYMDVWGKGTTVTVSS
VL: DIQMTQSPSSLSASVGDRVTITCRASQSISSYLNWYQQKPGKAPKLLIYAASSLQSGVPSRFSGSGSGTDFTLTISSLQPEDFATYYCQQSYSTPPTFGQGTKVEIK
notes: as the heavy chain of m8; as the light chain of m8; also called PB4rev (FLAG); source: heavy chain vector FJ475055 with FLAG co-expressed with the light chain plasmid, purified with protein A; not shown: FLAG, C-terminal, kept
Take B1: the binding result is given as “binds”.

(Values after paper PMC7731665 (Frontiers in Immunology, 2020).)
